# Data reported in PMC12530519.
# Molecular target: Ty1c CA(F323S) (S. cerevisiae)
# Test: SEC-MALS; individual proteins, 12.5-200 µM, Superdex INCREASE 200 10/300 GL at 298 K, 50 mM Tris-HCl, 800 mM NaCl, 0.5 mM TCEP, 3 mM NaN3, pH 8.5
substance,measurement,value
Ty1c CA(F323S) (domain or fragment),stoichiometry N,2
